We go through eleven molecules from patent publication US20240327530A1 (ICHNOS SCIENCES, published 2024).

The target of experiment [1] is T1, Recombinant mouse IL-1RAP Fc fusion protein (Sino Biologicals, catalog no. 52657-M02H) (mouse, UniProt Q61730 21-350).
T1 construct: Bought; not shown: Fc part of the bought fusion protein
T1 sequence: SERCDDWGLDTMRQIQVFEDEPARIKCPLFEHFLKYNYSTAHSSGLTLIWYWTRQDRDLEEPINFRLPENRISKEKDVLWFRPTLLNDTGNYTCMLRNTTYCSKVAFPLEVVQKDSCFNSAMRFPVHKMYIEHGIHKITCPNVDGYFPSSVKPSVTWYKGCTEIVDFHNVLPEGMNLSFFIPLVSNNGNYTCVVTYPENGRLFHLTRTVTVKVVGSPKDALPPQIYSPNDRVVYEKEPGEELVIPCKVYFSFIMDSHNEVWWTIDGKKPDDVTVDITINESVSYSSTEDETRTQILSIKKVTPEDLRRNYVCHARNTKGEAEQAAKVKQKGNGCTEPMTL
Nature of the experiment: SPR, mouse IL-1RAP-Fc captured, Fab as analyte (0.04 to 5 nM). Here is the method: Affinities of the Fab fragments to mouse IL-1RAP were measured as described in Example 1, with the following modifications. Measurements were performed on Series S CM5 sensor chips (BIACORE™ T200, BIACORE™, GE […]®, catalog no. BR100530) coupled with anti-human IgG Fc (BIACORE™, GE […]®, catalog no. BR100839) using a commercial amine coupling kit (BIACORE™, GE […]®, catalog no. BR100050). SPR measurements were performed with commercially available recombinant mouse IL-1RAP Fc fusion protein (Sino Biologicals, catalog no. 52657-M02H). The affinities to mouse IL-1RAP were assessed by immobilizing mouse IL-1RAP-Fc and using Fab fragments as analyte. Around 60 RUs of mouse IL-1RAP Fc fusion protein were captured on fc2 of a Series S CM5 sensor chip coupled with anti-human IgG Fc. Fab fragments were injected in single cycle kinetic at different concentrations ranging from 0.04 to 5 nM, in HBS-EP+ buffer (BIACORE™, GE […]®, catalog no. BR100669) at a flow rate of 30 μl/min for 3 min on fc1 and fc2 (fc1 being used as reference). Dissociation was monitored for 10 min.
For orientation: In SPR one partner is held on a chip, and binding of the other changes the refractive index at the surface.

Experiment [2] has as its target T2, Recombinant cynomolgus monkey IL-1RAP-ECD(S21-E359)-avi-his protein (cynomolgus monkey, UniProt P59822 21-359 (rhesus entry)).
T2 construct: also called cyno IL-1RAP-ECD-Avi-His; recombinant cynomolgus monkey IL-1RAP-avi-his protein
T2 sequence: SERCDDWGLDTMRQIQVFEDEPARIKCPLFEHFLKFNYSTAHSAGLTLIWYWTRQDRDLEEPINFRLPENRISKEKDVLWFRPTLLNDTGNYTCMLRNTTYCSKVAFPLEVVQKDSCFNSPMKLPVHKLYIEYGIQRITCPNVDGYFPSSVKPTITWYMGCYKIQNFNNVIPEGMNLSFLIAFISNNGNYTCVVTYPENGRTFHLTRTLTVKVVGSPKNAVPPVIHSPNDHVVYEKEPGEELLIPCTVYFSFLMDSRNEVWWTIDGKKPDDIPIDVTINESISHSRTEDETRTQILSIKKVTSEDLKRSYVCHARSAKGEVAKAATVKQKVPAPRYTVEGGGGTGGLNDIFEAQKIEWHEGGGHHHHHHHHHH
Nature of the experiment: SPR, IgG1 LALA captured by anti-human Fc, cyno IL-1RAP-avi-his as analyte, 1:1 fit. The procedure:
(§1) Surface plasmon resonance (SPR) was used to measure the binding affinities of the human IgG1 LALA molecules for human and cynomolgus monkey IL-1RAP. Affinities were measured on a BIACORE™ T200 instrument (BIACORE™, GE […]®) at 25° C. and analyzed with the BIACORE™ T200 Evaluation Software (v3.1). Measurements were performed on Series S CM5 sensor chips (BIACORE™ T200, BIACORE™, GE […]®, catalog no. BR100530) coupled with anti-human IgG Fc (BIACORE™, GE […]®, catalog no. BR100839) using a commercial amine coupling kit (BIACORE™, GE […]®, catalog no. BR100050). SPR measurements were performed with recombinant human IL-1RAP-avi-his protein produced in house (SEQ ID NO. 1) or recombinant cynomolgus monkey IL-1RAP-avi-his protein produced in house (SEQ ID NO. 2). The affinities to human and cynomolgus monkey IL-1RAP were assessed by immobilizing anti-IL-1RAP IgG1 LALA molecules and using IL-1RAP proteins as analyte. Around 150 RU of human IgG1 LALA were captured on fc2 of a Series S CM5 sensor chip coupled with anti-human IgG Fc. Recombinant human IL-1RAP-avi-his protein or recombinant cynomolgus monkey IL-1RAP-avi-his protein was injected in multi cycle kinetic at different concentrations ranging from 0.14 to 100 nM, in HBS-EP+ buffer (BIACORE™, GE […]®, catalog no. BR100669) at a flow rate of 30 μl/min for 3 min on fc1 and fc2 (fc1 being used as reference). Dissociation was monitored for 12 min. After each cycle, the surface was regenerated with 60 μl of regeneration solution provided with anti-human IgG Fc capture kit (BIACORE™, GE […]®, catalog no. BR100839). Experimental data were processed using the 1:1 Langmuir kinetic fitting model. Measurements included zero-concentration samples for referencing. Chi², U- and residual values were used to evaluate the quality of a fit between the experimental data and individual binding models.

In experiment [3] the target is T3, Recombinant human IL-1RAP-ECD(S21-E359)-avi-his protein (human, UniProt Q9NPH3 21-359).
T3 construct: Biotinylated where loaded on streptavidin; also called human IL-1RAP-ECD-Avi-His; recombinant human IL-1RAP-avi-his protein
T3 sequence: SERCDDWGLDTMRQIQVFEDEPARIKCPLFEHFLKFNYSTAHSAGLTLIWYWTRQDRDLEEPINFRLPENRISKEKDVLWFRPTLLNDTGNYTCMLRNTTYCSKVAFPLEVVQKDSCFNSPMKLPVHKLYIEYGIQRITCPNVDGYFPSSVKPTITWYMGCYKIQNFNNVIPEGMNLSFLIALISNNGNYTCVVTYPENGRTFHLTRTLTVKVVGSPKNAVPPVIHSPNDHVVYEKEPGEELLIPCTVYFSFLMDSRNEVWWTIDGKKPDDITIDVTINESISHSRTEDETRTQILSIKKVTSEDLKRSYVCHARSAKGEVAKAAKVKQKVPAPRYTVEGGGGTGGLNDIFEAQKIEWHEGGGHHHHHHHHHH
The experiment can be described thus: SPR, IgG1 LALA captured by anti-human Fc, human IL-1RAP-avi-his as analyte, 1:1 fit. Here is the method:
as §1

B1: Anti-IL-1RAP-C3-MP01-A2 Fab (Fab, V domains shown)
VH: EVQLLESGGGLVQPGGSLRLSCAASGFTFAEYAMNWVRQAPGKGLEWVSAISYDGEGTLYADSVKGRFTISRDNSKNTLYLQMNSLRAEDTAVYYCARFRYYTAFDYWGQGTLVTVSS
VL: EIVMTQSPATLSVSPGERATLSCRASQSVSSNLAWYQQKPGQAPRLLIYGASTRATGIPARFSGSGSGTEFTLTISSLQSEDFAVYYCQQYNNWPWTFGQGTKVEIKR
Usually Kd stands for the equilibrium constant for the complex coming apart. Turning to B1, in experiment [1], the Kd came out at 0.68 nM.

B2: Anti-IL-1RAP-C3-MP02-B8 Fab (Fab, V domains shown)
VH: EVQLLESGGGLVQPGGSLRLSCAASGFTFEHSSAGWVRQAPGKGLEWVSAISYDGEGTLYADSVKGRFTISRDNSKNTLYLQMNSLRAEDTAVYYCARFRYYTAFDYWGQGTLVTVSS
VL: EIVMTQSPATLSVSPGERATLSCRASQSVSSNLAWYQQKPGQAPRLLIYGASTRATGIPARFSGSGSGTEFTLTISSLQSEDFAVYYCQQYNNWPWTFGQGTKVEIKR
Turning to B2, the equilibrium dissociation constant (Kd) in experiment [1] was determined as 0.49 nM.

B3: Anti-IL-1RAP-C3-MP02-F6 Fab (Fab, V domains shown)
VH: EVQLLESGGGLVQPGGSLRLSCAASGFTFPDYPLGWVRQAPGKGLEWVSAISYDGEGTLYADSVKGRFTISRDNSKNTLYLQMNSLRAEDTAVYYCARFRYYTAFDYWGQGTLVTVSS
VL: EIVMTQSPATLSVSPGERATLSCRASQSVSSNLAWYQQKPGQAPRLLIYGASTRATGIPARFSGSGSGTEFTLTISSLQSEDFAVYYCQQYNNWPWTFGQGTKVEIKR
On to B3, for which, in experiment [1], the dissociation constant (Kd) was 0.26 nM.

B4: Anti-IL-1RAP-C3-MP02-G2 Fab (Fab, V domains shown)
VH: EVQLLESGGGLVQPGGSLRLSCAASGFTYDVAPMGWVRQAPGKGLEWVSAISYDGEGTLYADSVKGRFTISRDNSKNTLYLQMNSLRAEDTAVYYCARFRYYTAFDYWGQGTLVTVSS
VL: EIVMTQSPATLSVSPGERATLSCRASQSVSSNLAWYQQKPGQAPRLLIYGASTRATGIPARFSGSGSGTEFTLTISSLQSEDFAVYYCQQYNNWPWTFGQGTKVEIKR
With B4, the equilibrium dissociation constant (Kd) in experiment [1] was determined as 0.32 nM.

B5: Anti-IL-1RAP-C3-MP01-D2 Fab (Fab, V domains shown)
VH: EVQLLESGGGLVQPGGSLRLSCAASGFTFSQFGMTWVRQAPGKGLEWVSAISYDGEGTLYADSVKGRFTISRDNSKNTLYLQMNSLRAEDTAVYYCARFRYYTAFDYWGQGTLVTVSS
VL: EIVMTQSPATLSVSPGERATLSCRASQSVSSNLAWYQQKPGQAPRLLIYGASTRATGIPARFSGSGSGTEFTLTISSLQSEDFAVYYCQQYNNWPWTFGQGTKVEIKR
In the case of B5, in experiment [1], the dissociation constant Kd came to 0.22 nM.

B6: Anti-IL-1RAP-C3-MP01-G10 Fab (Fab, V domains shown)
VH: EVQLLESGGGLVQPGGSLRLSCAASGFTFSHYGMSWVRQAPGKGLEWVSAISYDGEGTLYADSVKGRFTISRDNSKNTLYLQMNSLRAEDTAVYYCARFRYYTAFDYWGQGTLVTVSS
VL: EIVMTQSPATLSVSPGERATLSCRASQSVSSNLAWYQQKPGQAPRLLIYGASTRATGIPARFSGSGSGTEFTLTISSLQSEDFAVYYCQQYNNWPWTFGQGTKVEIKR
Turning to B6, the dissociation constant (Kd) in experiment [1] worked out at 0.21 nM.

B7: Anti-IL-1RAP-C3-MP01-B5 Fab (Fab, V domains shown)
VH: EVQLLESGGGLVQPGGSLRLSCAASGFIFSTYGMGWVRQAPGKGLEWVSAISYDGEGTLYADSVKGRFTISRDNSKNTLYLQMNSLRAEDTAVYYCARFRYYTAFDYWGQGTLVTVSS
VL: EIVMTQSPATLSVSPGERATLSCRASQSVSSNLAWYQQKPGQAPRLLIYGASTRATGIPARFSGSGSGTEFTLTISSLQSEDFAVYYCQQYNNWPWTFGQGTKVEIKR
As for B7, the Kd in experiment [1] turned out to be 0.21 nM.

B8: Anti-IL-1RAP-C3-MP01-F5 Fab (Fab, V domains shown)
VH: EVQLLESGGGLVQPGGSLRLSCAASGFPLSNYGMSWVRQAPGKGLEWVSAISYDGEGTLYADSVKGRFTISRDNSKNTLYLQMNSLRAEDTAVYYCARFRYYTAFDYWGQGTLVTVSS
VL: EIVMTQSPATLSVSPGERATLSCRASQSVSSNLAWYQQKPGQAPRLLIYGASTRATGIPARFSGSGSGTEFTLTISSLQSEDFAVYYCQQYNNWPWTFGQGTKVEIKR
Turning to B8, in experiment [1], the Kd stood at 0.28 nM.

B9: Anti-IL-1RAP-C3-MP01-A3 Fab (Fab, V domains shown)
VH: EVQLLESGGGLVQPGGSLRLSCAASGFIFSHYGMSWVRQAPGKGLEWVSAISYDGEGTLYADSVKGRFTISRDNSKNTLYLQMNSLRAEDTAVYYCARFRYYTAFDYWGQGTLVTVSS
VL: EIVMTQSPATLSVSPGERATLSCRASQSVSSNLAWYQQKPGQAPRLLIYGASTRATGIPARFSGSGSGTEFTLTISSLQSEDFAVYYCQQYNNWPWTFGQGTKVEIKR
notes: also called Fab clone anti-IL-1RAP-C3-A3
Turning to B9, in experiment [1], the Kd came out at 0.14 nM.

B10: Anti-IL-1RAP-C3-MP01-B7 Fab (Fab, V domains shown)
VH: EVQLLESGGGLVQPGGSLRLSCAASGFTLSGFSMSWVRQAPGKGLEWVSAISYDGEGTLYADSVKGRFTISRDNSKNTLYLQMNSLRAEDTAVYYCARFRYYTAFDYWGQGTLVTVSS
VL: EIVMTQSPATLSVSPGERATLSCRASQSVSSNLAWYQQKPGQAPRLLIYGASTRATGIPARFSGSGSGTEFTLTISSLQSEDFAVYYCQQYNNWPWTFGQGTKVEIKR
Consider B10, for which, in experiment [1], the equilibrium dissociation constant (Kd) was found to be 0.17 nM.

B11: Anti-IL-1RAP-C8-RecC-ET-IgG1LALA (antibody, V domains shown)
VH: QVQLVQSGAEVKKPGSSVKVSCKASGSPAEPYAIQWVRQAPGQGLEWMGYIIPSLGGYDYAQKFQGRVTITADESTSTAYMELSSLRSEDTAVYYCARGQTLYETGRQFDIWGQGTLVTVSS
VL: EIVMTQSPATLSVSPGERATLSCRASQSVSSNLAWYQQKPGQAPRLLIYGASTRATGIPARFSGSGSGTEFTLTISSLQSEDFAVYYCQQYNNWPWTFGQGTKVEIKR
notes: Human IgG1 LALA; also called ISB 880-C8-recC-ET
The koff is the rate constant with which the complex falls apart. Broadly, the kon is the second-order rate constant of association. Consider B11, for which, in experiment [2], the dissociation constant Kd worked out at 0.336 nM, the koff worked out at 0.000308 s⁻¹ and the on-rate (kon) turned out to be 916000 M⁻¹ s⁻¹. Moreover, in experiment [3], the Kd came out at 0.278 nM, the dissociation rate constant (koff) stood at 0.000253 s⁻¹ and the association rate constant (kon) is 916000 M⁻¹ s⁻¹.
